We go through one substance from US6602659.

The test has as its target human ST receptor protein (human) (UniProt P25092). As to the kind of experiment: receptor binding on colorectal tumor samples (local and metastasized); method and ligand not described.
Chain of UniProt P25092 (P25092 other isoform, or with tags, fused parts or gaps limits assumed): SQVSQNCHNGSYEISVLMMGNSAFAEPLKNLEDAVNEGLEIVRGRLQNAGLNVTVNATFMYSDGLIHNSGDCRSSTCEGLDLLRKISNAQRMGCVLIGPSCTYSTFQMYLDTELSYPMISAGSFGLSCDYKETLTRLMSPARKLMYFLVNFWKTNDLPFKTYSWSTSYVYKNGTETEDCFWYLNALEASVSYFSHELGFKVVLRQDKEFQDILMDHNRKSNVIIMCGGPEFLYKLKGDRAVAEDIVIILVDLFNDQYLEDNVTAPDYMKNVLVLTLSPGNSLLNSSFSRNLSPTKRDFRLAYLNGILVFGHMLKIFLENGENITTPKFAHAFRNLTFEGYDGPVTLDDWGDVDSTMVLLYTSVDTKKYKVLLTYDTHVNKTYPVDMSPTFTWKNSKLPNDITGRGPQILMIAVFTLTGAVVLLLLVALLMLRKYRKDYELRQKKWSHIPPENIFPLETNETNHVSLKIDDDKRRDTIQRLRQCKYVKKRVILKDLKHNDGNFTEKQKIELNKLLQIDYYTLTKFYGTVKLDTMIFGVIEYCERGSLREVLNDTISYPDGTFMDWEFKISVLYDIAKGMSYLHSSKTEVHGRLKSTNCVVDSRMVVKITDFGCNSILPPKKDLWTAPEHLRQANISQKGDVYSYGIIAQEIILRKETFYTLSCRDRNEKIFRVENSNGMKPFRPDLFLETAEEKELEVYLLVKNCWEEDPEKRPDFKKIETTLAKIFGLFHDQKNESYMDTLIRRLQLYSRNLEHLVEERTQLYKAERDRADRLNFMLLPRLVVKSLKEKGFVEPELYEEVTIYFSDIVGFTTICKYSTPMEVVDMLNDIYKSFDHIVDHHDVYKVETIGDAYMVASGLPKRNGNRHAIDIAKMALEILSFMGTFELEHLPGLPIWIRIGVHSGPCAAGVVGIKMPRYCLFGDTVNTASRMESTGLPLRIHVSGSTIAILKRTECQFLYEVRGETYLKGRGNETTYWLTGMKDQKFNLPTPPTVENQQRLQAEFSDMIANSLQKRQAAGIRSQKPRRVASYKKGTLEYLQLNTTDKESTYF

With heat-stable toxin (ST) (peptide), the affinity was less than 1e-07.
